Biological target: VEGF (UniProt P15692)
Experiment: native MS

stoichiometry N: 2
Substance: VEGF (from UniProt P15692-4 1-191) (ligand)

From PMC4899112
